Data reported in paper PMC7736253 (Nature plants, 2020).

How the values were obtained:
[1] = molecular target: Rubisco holoenzyme (native Rubisco purified from Chlamydomonas cells) (Chlamydomonas reinhardtii (endogenous in strain cMJ030)) (UniProt P00877); assay: cryo-EM structure
[2] = molecular target: Rubisco holoenzyme (native Rubisco purified from Chlamydomonas cells) (Chlamydomonas reinhardtii (endogenous in strain cMJ030)) (UniProt P00877); assay: SPR
[3] = molecular target: the molecule itself; assay: cryo-EM structure

Row | Molecule | stoichiometry N [1] | Kd [2] [µM] | stoichiometry N [3]
1 | EPYC1_(106-135) peptide | < 8 | – | –
2 | EPYC1_(49-72) peptide | < 8 | 3000 | –
3 | Rubisco large subunit (in the native holoenzyme) (natural protein, UniProt P00877 3-475, looked up) PQTETKAGAGFKAGVKDYRLTYYTPDYVVRDTDILAAFRMTPQLGVPPEECGAAVAAESSTGTWTTVWTDGLTSLDRYKGRCYDIEPVPGEDNQYIAYVAYPIDLFEEGSVTNMFTSIVGNVFGFKALRALRLEDLRIPPAYVKTFVGPPHGIQVERDKLNKYGRGLLGCTIKPKLGLSAKNYGRAVYECLRGGLDFTKDDENVNSQPFMRWRDRFLFVAEAIYKAQAETGEVKGHYLNATAGTCEEMMKRAVCAKELGVPIIMHDYLTGGFTANTSLAIYCRDNGLLLHIHRAMHAVIDRQRNHGIHFRVLAKALRMSGGDHLHSGTVVGKLEGEREVTLGFVDLMRDDYVEKDRSRGIYFTQDWCSMPGVMPVASGGIHVWHMPALVEIFGDDACLQFGGGTLGHPWGNAPGAAANRVALEACTQARNEGRDLAREGGDVIRSACKWSPELAAACEVWKEIKFEFDTIDKL | – | – | 8
